Experimental data as given in patent US20130108613A1.

Molecular target: monomeric synthetic human Aβ1-42 peptide (human)
Experiment: cell-based or functional assay

## recombinant NIa (nuclear inclusion a) protease of Turnip mosaic virus (TuMV), purified from E. coli (from UniProt P89509 2117-2359) (enzyme)
  reduction of monomeric Aβ level, densitometry of Western blot (6E10), 3 hrs at 25 °C, NIa pre-incubated with the cysteine protease inhibitor NEM: 33%
